Among the data in publication PMC12255766 (2025) are screen value values, retold here.

B1: Venus::LAT-1 (C. elegans latrophilin homolog LAT-1 fused to Venus) [C. elegans] / Nluc::LAG-2 (C. elegans DSL protein/Notch ligand LAG-2 fused to Nanoluciferase) [C. elegans] (parent complex)
chain 1: SNKPTTDESGTISHTICDGEAAELSCPAGKVISIVLGNYGRFSVAVCLPDNDIVPSNINCQNHKTKSILEKKCNGDSMCYFTVDKKTFTEDPCPNTPKYLEVKYNCVVPATTTTTTTTTSTTTTDSSLIVDEEEEAQKDALNSDVIKPVKKKEDVFCSATNRRGVNWQNTKSGTTSSAPCPEGSSGKQLWACTEEGQWLTEFPNSAGCESNWISSRNSVLSGVISSEDVSGLPEFLRNLGSETRRPMVGGDLPKVLHLLEKTVNVIAEESWAYQHLPLSNKGAVEVMNYMLRNQEIWGSWDVTKRKEFASRFILAAEKAMVASAKGMMTSAESNVIVQPAITVEISHKIKMSSQPTDYILFPSAALWNGQNVDNVNIPRDAILKINKDETQVFFSSFDNLGAQMTPSDVTVAIAGTDQTEVRKRRVVSRIVGASLIENGKERRVENLTQPVRITFYHKESSVRHLSNPTCVWWNHHELKWKPSGCKLSYHNKTMTSCDCTHLTHFAVLMDVRGHDLNEIDQTLLTLLTYVGCIISIICLLLTFFAYLIFSRNGGDRVFIHENLCLSLAIAEITFLAGITRTEDSLQCGIIAVALMYMFLSALTWMLLEGYHIHRMLTEVFPSDPRRFTYLLVGYIPPAIITLVAYLYNSDGFGTPDHCWLSTQNNFIWFFAGPACFIFCANSLVLVKTLCTVYQHTSGGYLPCRHDVDSGRSIRNWVKGSLALASLLGVTWIFGLFWVEDSRSIVMAYVFTISNSLQGLFIFLFHVVFAEKMRKDVGHWMYRRGCGGSSNSSPNHKRHNVQRDLMSPGVNSSTGSDFLYNTNDKYLTNSDTTNRLVYNGIMNHPNQMSVYQQHPHHQIYEQQPGTYDYATIAYGDMMPGHRVAAPPAYQRLAVAEGRYGSQHQLYQGWHHRPPPEFSPPPPPLSTGPPNSRHYGTGSSGRRPPSSKMSDDSAYSDGSSSMLTTEVTPQGQTVLRIDLNKPSMYCQDL
chain 2: QARVEVHQEFISSKRVSVRFEIVTESHSPNRPVTFDLFPRGPKTNIILLDTFNPVFNFSIQLVQPFTGQPLGDRIYRKVQFSGTNQPWINDTFTTTSGISLSVATEVTCARNYFGNRCENFCDAHLAKAARKRCDAMGRLRCDIGWMGPHCGQAVDPRKCSCENDGICVSSMIHPSQPNQTSSNEQLICECTNGFTGTRCEIFGFNQFQLTAPRPDACSVKDACLNGAKCFPNGPKVFCSCAVGFIGEFCEISLTTTTPTTVEITVSTSGYSSAVYITVALFVIFSIIIGCFKYKFKPMRQQALARGQVPEPYKMPETKSMLIDPEASEAQKKVFTIEGSVQKIDEEVRYTSAPRKYESNNEYAVIQKSTPPPPSLSPPSIPACHYV

The variants in this assay derive from B1. Kind of assay: NanoBRET; HEK293 cells; Venus::LAT-1 acceptor, Nluc::LAG-2 donor; parent: 0.0042; read off a plot.
Regarding chain 1 L36A, chain 1 F42A, chain 1 D50A, chain 1 D52A, chain 1 V54A, the screen value is approximately 0.0053.
On to chain 1 Q354A, chain 1 P355A, chain 1 D357A, chain 1 Y358A, chain 1 L360A, chain 1 L366A, chain 1 W367A, for which the screen value was approximately 0.0025.
